In PMC7061092 (Physiological Reports, 2020):
Read-outs that look alike come from different tables or passages of the source. No end group written: not given here.

Columns and labels:
[1] = target: WT hERG (Homo sapiens, UniProt Q12809); conditions: for Isochronal percentage of hERG block (IhERG tail): terfenadine 100 nM, thioridazine 100 nM, dofetilide 10 nM, chloroquine 1 µM, ketoconazole 3 µM, mean ± SEM
Experimental: (§1) For transient transfection experiments, 24 hr after plating cells out, cells were transiently transfected with 0.5 µg of the F656V hERG construct using Lipofectamine^TM LTX (Invitrogen) according to the manufacturer's instructions. […] Cells were plated onto small sterilized glass coverslips 6 hr after transfection and recordings were made after at least 24 hr incubation at 37°C. Successfully transfected cells were identified using Dynabeads® (Invitrogen). All experimental data for the F656V hERG mutant channel were obtained from cells from a minimum of two transfections.
(§2) Recordings of hERG current (IhERG) and were made using an Axopatch 200 amplifier (Axon Instruments) and a CV201 head‐stage. Between 70%–80% of pipette series resistance was compensated. Voltage‐clamp commands were generated using “WinWCP” (John Dempster, Strathclyde University).
The A(x)1 and B(x)1 values were derived from Equation 1. […] Time courses of IhERG inhibition were fitted using either a single (Equation 3) exponential decay fit of the forms:(3) Y=Y^0-Plateau∗exp-K∗X+Plateau.
IhERG “tail” magnitude was measured relative to instantaneous current at −40 mV elicited by the brief (50 ms) depolarizing step that preceded the voltage command to +20 mV in the absence and presence of the drug. […] We also assessed the effects of drug block on IhERG time constants of deactivation. Tail currents on repolarization to −40mV were fitted using a biexponential to derive the fast τ1 and slow τ2 time constants of deactivation in control and after drug application.

[2] = target: F656V hERG (Homo sapiens, UniProt Q12809, F656V); experiment: Whole-cell patch-clamp recording of IhERG in HEK 293 cells transiently transfected with F656V hERG at 37°C
Experimental: The F656V hERG mutation (Lees‐Miller, Duan, Teng, & Duff, 2000) was generated using the QuickChange® site‐directed mutagenesis kit (Stratagene). In brief, a pair of complementary oligonucleotide primers containing the mutation (forward primer sequence 5′[…]3′ and reverse primer sequence 5′ […]3′, synthesized by Sigma‐Genosys) was used in a PCR reaction (95°C for 1 min, 60°C for 1 min, 68°C for 16 min for 18 cycles) with hERG in a modified pcDNA3.0 vector as a DNA template. A DpnI digest of the PCR mix was then performed for 1 hr at 37°C. Competent DH5α Escherichia coli (Invitrogen) were transformed using standard procedures. The mutation was confirmed by sequencing of the entire open reading frame (Eurofins MWG Operon).
as §1, §2

[3] = 30 nM BeKm-1, absence of erythromycin
[4] = 30 nM BeKm-1 in the maintained presence of 3 µM erythromycin

| Molecule | Isochronal percentage of hERG block (IhERG tail) ([1]; 0 µM erythromycin) | Isochronal percentage of hERG block (IhERG tail) ([1]; preincubation with 3 µM erythromycin) | Isochronal percentage of hERG block (IhERG tail) ([1]; preincubation with 30 µM erythromycin) | nature of interaction with erythromycin pretreatment on hERG block ([1]; pretreatment with low concentrations of erythromycin (≤30 µM)) | reduction of F656V IhERG [2, 3] [%] | thalf of F656V IhERG inhibition [2, 3] [s] | block of F656V IhERG at steady state [2, 4] [%] | thalf of F656V IhERG inhibition [2, 4] [s] | % of IhERG block at steady state [1] [%] | WT IhERG tail block [1] [%] | reduction of WT IhERG tail [1] [%] | time course of WT hERG block [1] |
| --- | --- | --- | --- | --- | --- | --- | --- | --- | --- | --- | --- | --- |
| CCN(CC)CCCC(C)Nc1ccnc2cc(Cl)ccc12 (stereo not drawn) [Chloroquine, chloroquine] | 48.4 ± 3.9 (n = 5) % | 70.8 ± 5.3 (n = 5) % | 77.8 ± 0.6 (n = 4) % | strong synergism |  |  |  |  |  |  |  |  |
| BeKm‐1: peptide (scorpion) toxin, in house Fmoc-synthesized, externally acting hERG blocker (RPTDIKCSESYQCFPVCKSRFGKTNGRCVNGFCDCF; ends and bridges not checked; cysteine pairing not given here; UniProt Q9BKB7 22-57, looked up) |  |  |  |  | 74.5 ± 1.6 | 14.2 ± 3.3 | 69.4 ± 5.1 | 20.7 ± 4.6 | 51.4 ± 4.6 | 46.8 ± 5.0 | 52.2 ± 3.4 | delayed |
